Results: paper PMC6208734, “Epitope determines efficacy of therapeutic anti-Tau antibodies in a functional assay with human Alzheimer Tau” (Acta Neuropathologica, 2018)

B1: antibody A (antibody, V domains shown)
VH: EVHLVESGGALVKPGGSLKLSCAASGFSFSKYGMSWVRQTPDKRLEWVATISSSGSRTYYPDSVKGQFTISRDNAKNTLYLQMSSLKSEDTAMYYCSISWDGAMDYWGQGTSVTVSS
VL: DVLMTQTPLSLPVSLGDQASISCKSSQSIVHSNGNTYLEWYLQKPGQSPKLLVYKVSNRFSGVPDRFSGSGSGTDFTLKISRVEAEDLGTYYCFQGSLVPWAFGGGTKLEIK
notes: heavy chain V-region; mouse gamma-1 IgG heavy chain constant region (from the expression vector); light chain V-region; mouse kappa light chain constant region (from the expression vector); source: CHOSXE cell line, electroporated, purified (Protein A, gel filtration); copies: 2 + 2
B2: antibody F (antibody, V domains shown)
VH: EVQLVQSGAEVKKPGESLKISCKGSGYTFSNYWIEWVRQMPGKGLEWMGEILPGSDSIKYEKNFKGQVTISADKSISTAYLQWSSLKASDTAMYYCARRGNYVDDWGQGTLVTVSS
VL: EIVLTQSPGTLSLSPGERATLSCRSSQSLVHSNQNTYLHWYQQKPGQAPRLLIYKVDNRFSGIPDRFSGSGSGTDFTLTISRLEPEDFAVYYCSQSTLVPLTFGGGTKVEIK
notes: as for B1
B3: antibody B (antibody, V domains shown)
VH: EVKVEESGGGLVQPGGSMKLSCVVSGFTFSNYWVNWVRQSPEKGLEWVAQIRLKSDNYATHYEESVKGRFTISRDDSKSSVYLQMNNLRAEDSGIYYCTNWEDYWGQGTTLTVSS
VL: DIVLTQSPASLAVSLGQRATISCRASQSVSTSRYSYIHWYQQKPGQPPKLLIKYASNLESGVPARFSGSGSGTDFTLNIHPLEEEDAATYYCHHSWEIPLTFGAGTKLELK
notes: as for B1

target: T1, monomeric recombinant Tau (2N4R) (Homo sapiens (Human)., UniProt P10636-8); assay: SPR; monomeric recombinant Tau and full-length IgG; BIAcore T200, 25 °C; extrinsic affinity; who was immobilised is not told for the monomer; conditions: both partners purified
T1 construct: Tau (microtubule-associated protein Tau), isoform 2N4R, 441 amino acids; gene synthesized by DNA2.0; also called Tau monomer; monomeric Tau; source: Expi293 expression system, purified from culture medium (Ni Sepharose Excel, TEV cleavage, second Ni Sepharose Excel); not shown: 10His-TEV, N-terminal, cleaved
T1 sequence (P10636 other isoform, or with tags, fused parts or gaps): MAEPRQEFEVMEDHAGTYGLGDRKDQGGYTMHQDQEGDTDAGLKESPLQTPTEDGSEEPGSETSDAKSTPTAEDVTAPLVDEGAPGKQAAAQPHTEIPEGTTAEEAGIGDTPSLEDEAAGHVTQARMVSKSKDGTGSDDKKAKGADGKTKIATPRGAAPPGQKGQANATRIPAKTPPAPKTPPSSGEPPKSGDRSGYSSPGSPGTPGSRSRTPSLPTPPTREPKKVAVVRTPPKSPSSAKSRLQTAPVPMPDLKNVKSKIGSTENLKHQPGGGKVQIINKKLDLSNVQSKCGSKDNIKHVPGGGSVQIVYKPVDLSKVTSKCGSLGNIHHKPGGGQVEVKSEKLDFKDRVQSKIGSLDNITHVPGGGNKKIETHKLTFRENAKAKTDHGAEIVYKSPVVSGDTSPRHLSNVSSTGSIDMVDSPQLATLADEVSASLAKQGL

Question: Which Kd does the source give for B1 here?
Answer: 0.16 nM

Question: And the koff?
Answer: 5.2e-05 s⁻¹

Question: What about the kon of the same binder?
Answer: 360000 M⁻¹ s⁻¹

Question: What does the source list for B2?
Answer: Kd: 117 nM; koff: 0.0205 s⁻¹; kon: 180000 M⁻¹ s⁻¹

Question: Which Kd does the source give for B3 here?
Answer: 20.7 nM

Question: And the koff?
Answer: 0.000953 s⁻¹

Question: And the kon?
Answer: 50000 M⁻¹ s⁻¹
